The target of the experiment is Epithelial cell adhesion molecule (EpCAM) (human) (UniProt P16422). Kind of experiment: cell-based or functional assay.
UniProt P16422, sequence (P16422 24-314 M115T limits assumed): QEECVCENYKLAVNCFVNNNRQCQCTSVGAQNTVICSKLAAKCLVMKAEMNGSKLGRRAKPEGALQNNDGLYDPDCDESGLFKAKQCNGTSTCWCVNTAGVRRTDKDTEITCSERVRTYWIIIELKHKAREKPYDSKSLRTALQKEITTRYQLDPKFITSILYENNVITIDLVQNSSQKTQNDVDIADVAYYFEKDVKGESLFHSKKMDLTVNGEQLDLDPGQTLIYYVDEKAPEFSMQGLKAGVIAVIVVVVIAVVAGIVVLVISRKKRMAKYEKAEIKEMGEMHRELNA

Turning to “VB4-845 immunotoxin (from UniProt P11439 277-633)”, the IC50 of inhibition of proliferation, MTT based cell viability assay, ARO cells turned out to be 0.7 pM and the IC50 of inhibition of proliferation, MTT based cell viability assay, WRO cells was determined as 1 pM.
